Blank lines part the entries; values can stand above or below the binder they belong to.
Columns and labels:
[1] = biological target: T1, human NMI (N-myc Interacting protein) (human, UniProt Q13287 1-307, limits assumed); experiment: I-ELISA, hNMI coated 1 ug/mL; antibody 156.25 ng/mL
T1 construct: Immunogen and ELISA coating antigen; also called hNMI; antigen 1
T1 sequence (looked up): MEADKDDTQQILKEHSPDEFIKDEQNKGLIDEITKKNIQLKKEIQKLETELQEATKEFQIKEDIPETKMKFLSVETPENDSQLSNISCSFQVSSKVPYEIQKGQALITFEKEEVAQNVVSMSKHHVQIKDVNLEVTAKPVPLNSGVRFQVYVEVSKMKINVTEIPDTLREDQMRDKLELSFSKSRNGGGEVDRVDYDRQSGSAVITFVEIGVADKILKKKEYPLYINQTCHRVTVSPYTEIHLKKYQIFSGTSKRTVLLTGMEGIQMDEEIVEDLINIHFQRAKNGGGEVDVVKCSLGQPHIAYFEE

[2] = biological target: T1, human NMI (N-myc Interacting protein); experiment: indirect ELISA, human NMI coated; supernatant 1/27
[3] = biological target: T1, human NMI (N-myc Interacting protein); experiment: indirect ELISA, human NMI coated (repeats Table 1)
[4] = biological target: T1, human NMI (N-myc Interacting protein); experiment: indirect ELISA, human NMI coated; supernatant 1/3
[5] = biological target: T1, human NMI (N-myc Interacting protein); experiment: I-ELISA, hNMI coated 1 ug/mL; antibody 4.8828125 ng/mL
[6] = biological target: T1, human NMI (N-myc Interacting protein); experiment: sandwich ELISA; coating antibody 2.5 ug/mL, detection 94C4-biotin 0.5 ug/mL
[7] = biological target: T1, human NMI (N-myc Interacting protein); experiment: I-ELISA, hNMI coated 1 ug/mL; antibody 1250 ng/mL
[8] = biological target: T1, human NMI (N-myc Interacting protein); experiment: I-ELISA, hNMI coated 1 ug/mL; antibody 39.0625 ng/mL
[9] = biological target: T1, human NMI (N-myc Interacting protein); experiment: indirect ELISA, human NMI coated; supernatant 1/6561
[10] = biological target: T1, human NMI (N-myc Interacting protein); experiment: I-ELISA, hNMI coated 1 ug/mL; antibody 19.53125 ng/mL
[11] = biological target: T1, human NMI (N-myc Interacting protein); experiment: I-ELISA, hNMI coated 1 ug/mL; antibody 1.2207031 ng/mL
[12] = biological target: T1, human NMI (N-myc Interacting protein); experiment: indirect ELISA, human NMI coated; supernatant 1/729
[13] = biological target: T1, human NMI (N-myc Interacting protein); experiment: I-ELISA, hNMI coated 1 ug/mL; antibody 312.5 ng/mL
[14] = biological target: T1, human NMI (N-myc Interacting protein); experiment: I-ELISA, hNMI coated 1 ug/mL; antibody 78.125 ng/mL
[15] = biological target: T1, human NMI (N-myc Interacting protein); experiment: indirect ELISA, human NMI coated; supernatant 1/2187
[16] = biological target: T1, human NMI (N-myc Interacting protein); experiment: indirect ELISA, human NMI coated; supernatant 1/19683
[17] = biological target: T1, human NMI (N-myc Interacting protein); experiment: I-ELISA, hNMI coated 1 ug/mL; antibody 625 ng/mL
[18] = biological target: T1, human NMI (N-myc Interacting protein); experiment: I-ELISA, hNMI coated 1 ug/mL; antibody 9.765625 ng/mL
[19] = biological target: T1, human NMI (N-myc Interacting protein); experiment: indirect ELISA, human NMI coated; supernatant dilution series
[20] = biological target: T1, human NMI (N-myc Interacting protein); experiment: indirect ELISA, human NMI coated; supernatant 1/9
[21] = biological target: T1, human NMI (N-myc Interacting protein); experiment: indirect ELISA, human NMI coated; supernatant 1/81
[22] = biological target: T1, human NMI (N-myc Interacting protein); experiment: I-ELISA, hNMI coated; upper end of the group's range, tied to 98G10 by Table 17
[23] = biological target: T1, human NMI (N-myc Interacting protein); experiment: indirect ELISA, human NMI coated; supernatant undiluted
[24] = biological target: T1, human NMI (N-myc Interacting protein); experiment: I-ELISA, hNMI coated 1 ug/mL; antibody 2.4414063 ng/mL
[25] = biological target: T1, human NMI (N-myc Interacting protein); experiment: indirect ELISA, human NMI coated; supernatant 1/59049
[26] = biological target: T1, human NMI (N-myc Interacting protein); experiment: I-ELISA, hNMI coated 1 ug/mL; antibody 2500 ng/mL
[27] = biological target: T1, human NMI (N-myc Interacting protein); experiment: indirect ELISA, human NMI coated; supernatant 1/243
[28] = biological target: T1, human NMI (N-myc Interacting protein); experiment: I-ELISA, hNMI coated; lower end of the group's range, tied to 94C4 by Table 17

OD450 [1]: 1.71 OD450
ELISA OD [2]: 3.32 OD
EC50 [3]: 1.22 ng/mL
ELISA OD [4]: 3.45 OD
OD450 [5]: 0.115 OD450
detection limit (sensitivity) [6]: 60 pg/mL
OD450 [7]: 2.15 OD450
OD450 [8]: 0.67 OD450
ELISA OD [9]: 1.07 OD
OD450 [10]: 0.41 OD450
OD450 [11]: 0.065 OD450
ELISA OD [12]: 2.48 OD
OD450 [13]: 1.97 OD450
OD450 [14]: 1.18 OD450
ELISA OD [15]: 1.72 OD
ELISA OD [16]: 0.528 OD
OD450 [17]: 2.08 OD450
OD450 [18]: 0.217 OD450
EC50 [19]: 1.22 ng/mL
ELISA OD [20]: 3.39 OD
ELISA OD [21]: 3.29 OD
EC50 [22]: 70 ng/mL
ELISA OD [23]: 3.45 OD
OD450 [24]: 0.081 OD450
ELISA OD [25]: 0.237 OD
OD450 [26]: 2.17 OD450
ELISA OD [27]: 2.97 OD
B1: 98G10 (antibody, V domains shown)
VH: QEQLEESGGDLVKPEGSLTLTCTASGFSFSASYWICWVRQAPGKGLEWIACIYGGSSGSAYYASWAKGRFTISKTSSTTVTLQMTSLTAADTATYFCARAGYYNYGSAGDIYPSSFKLWGPGTLVTVSS
VL: DIVMTQTPASVEAAVGGTVTINCQASQSISTALAWYQQKPGQPPKLLIYTASKVASGVPSRFSGSGSGTQFTLTISDLECADAATYYCQNYYYSSSSITFGGGTEVVVK
notes: Rabbit monoclonal antibody; also called 98G10-1; 98G10-1-biotin (biotin-labelled form)

OD450 [1]: 1.93 OD450
ELISA OD [2]: 3.47 OD
EC50 [3]: 0.189 ng/mL
ELISA OD [4]: 3.5 OD
EC50 [28]: 30 ng/mL
OD450 [5]: 0.262 OD450
OD450 [7]: 2.19 OD450
OD450 [8]: 1.22 OD450
ELISA OD [9]: 2.15 OD
OD450 [10]: 0.833 OD450
OD450 [11]: 0.092 OD450
ELISA OD [12]: 2.98 OD
OD450 [13]: 2.1 OD450
OD450 [14]: 1.64 OD450
ELISA OD [15]: 2.48 OD
ELISA OD [16]: 1.28 OD
OD450 [17]: 2.19 OD450
OD450 [18]: 0.482 OD450
EC50 [19]: 0.189 ng/mL
ELISA OD [20]: 3.58 OD
ELISA OD [21]: 3.43 OD
ELISA OD [23]: 3.46 OD
OD450 [24]: 0.142 OD450
ELISA OD [25]: 0.585 OD
OD450 [26]: 2.17 OD450
ELISA OD [27]: 3.29 OD
B2: 94C4 (antibody, V domains shown)
VH: QSLEESGGGLVQPEGSLTLTCKASGFDFSSNAMCWVRQAPGKGLEWIACISSASSGSSGSTYYASWAKGRFTISKTSSTTVTLQMTSLTAADMATYFCARDGYDLWGPGTLVTVSS
VL: QVLTQTPSSVSAAVGGTVTISCQSSPSVYNNYLSWFQQKPGQSPKLLIYRVSTLASGVPSRFSGSGSGTQFTLTISGVQCDDAATYYCAGGYDSASDTYVFGGGTEVVVK
notes: Rabbit monoclonal antibody; also called 94C4-1; 94C4-1-biotin (biotin-labelled form)

Reference: EP4682166A1 (Guangzhou Enmai Biotechnology Co., Ltd, dated 2026)
